Experimental data published in patent US20160040149A1, “Compositions Having Dicamba Decarboxylase Activity and Methods of Use” (priority 2013, published 2016).

Assays:
[1] = Saturation mutagenesis of SEQ ID NO:109: dicamba decarboxylation activity of point mutants (CO2 released), fold of backbone (Tables 7, 8, Megatable 1); conditions: decarboxylation activity (CO2 released) of point mutant vs unmutated backbone protein; backbone SEQ ID NO: 109
[2] = DNA shuffling libraries: 14CO2 capturing assay in 384-well format, fold activity of backbone (Megatable 2); conditions: relative to backbone SEQ ID NO: 133 (DDEC0201)

| Molecule | Fold Activity [1] | Fold Activity [2] |
| --- | --- | --- |
| 151 (protein, Dicamba decarboxylase variant) MAQGKVALEEHFAIPETLQDSAGFVPGDYWKELQHRLLDIQDTRLKLMDAHGIETMILSLAAPAVQAIPDRRKAIEIARRANDFLAEECAKRPDRFLAFAALPLQDPDAATEELQRCVNDLGFVGALVNGFSQEGDGQTPLYYDLPQYRPFWGEVEKLDVPFYLHPRNPLPQDSRIYDGHPWLLGPTWAFAQETAVHALRLMASGLFDEHPRLNIILGHMGEGLPYMMYRIDHRIAWVHQPPRYPAKRRFMDYFNENFHITTSGNFRTQTLIDAILEIGADRILFSTDWPFENIDHAADWFNATSIAEADRVKIGRTNARRLFKLDGD | 1.9 fold | 1.0 fold |
| 155 (protein, Dicamba decarboxylase variant) MAQGKVALEEHFAIPETLQDSAGFVPGDYWKELQHRLLDIQDTRLKLMDAHGIETMILSLAAPAVQAIPDRRKAIEIARRANDFLAEECAKRPDRFLAFAALPLQDPDAATEELQRCVNDLGFVGALVNGFSVEGDGQTPLYYDLPQYRPFWGEVEKLDVPFYLHPRNPLPQDSRIYDGHPWLLGPTWAFAQETAVHALRLMASGLFDEHPRLNIILGHLGEGLPYMMYRIDHRIAWVHEPPRYPAKRRFMDYFNENFHITTSGNFRTQTLIDAILEIGADRILFSTDWPFENIDHAADWFNATSIAEADRLKIGRTNARRLFKLDGA | 1.5 fold | 1.2 fold |
| 156 (protein, Dicamba decarboxylase variant) MAQGKVALEEHFAIPETLQDSAGFVPSDYLKELQHRLLDIQDTRLKLMDAHGIETMILSLAAPAVQAIPDRRKAIEIARRANDFLAEECAKRPDRFLAFAALPMQDPDAATEELQRCVNDLGFVGALVNGFSVEGDGQTPLYYDLPQYRPFWGEVEKLDVPFYLHPRNPLPQDSRIYDGHPWLLGPTWAFAQETAVHALRLMASGLFDEHPRLNIILGHLGEGLPYMMYRIDHRIAWVHEPPRYPAKRRFMDYFNENFHITTSGNFRTQTLIDAILEIGADRILFSTDWPFENIDHAADWFNATSIAEADRLKIGRTNARRLFKLDGA | 1.5 fold | 1.5 fold |
| 163 (protein, Dicamba decarboxylase variant) MAQGKVALEEHFAIPETLQDSAGFVPCEYWKELQHRLLDIQDTRLKLMDAHGIETMILSLAAPAVQAIPDRRKAIEIARRANDFLAEECAKRPDRFLAFAALPMQDPDAATEELQRCVNNLGFVGALVNGFSVEGDGQTPLYYDLPQYRPFWGEVEKLDVPFYLHPRNPLPQDSRIYDGHPWLLGPTWAFAQETAVHALRLMASGLFDEHPRLNIILGHMGEGLPYMMYRIDHRIAWVQEPPRYPAKRRFMDYFNENFHITTSGNFRTQTLIDAILEIGADRILFSTDWPFENIDHAADWFNATSIAEADRVKIGRTNARRLFKLDGD | 1.5 fold | 1.3 fold |
| 162 (protein, Dicamba decarboxylase variant) MAQGKVALEEHFAIPETLQDSAGFVPGDYWKELQHRLLDIQDTRLKLMDAHGIETMILSLAAPAVQAIPDRRKAIEIARRANDFLAEECAKRPDRFLAFAALPMQDVDAATEELQRCVNTLGFVGALVNGFSVEGDGQTPLYYDLPQYRPFWGEVEKLDVPFYLHPRNPLPQDSRIYDGHPWLLGPTWAFAQETAVHALRLMASGLFDEHPRLNIILGHLGEGLPYMMYRIDHRIAWVKLPPRYPAKRRFMDYFNENFHITTSGNFRTQTLIDAILEIGADRILFSTDWPFENIDHAADWFNATSIAEADRVKIGRTNARRLFKLDGA | 1.4 fold | 1.0 fold |
| 154 (protein, Dicamba decarboxylase variant) MAQGKVALEEHFAIPETLQDSAGFVPGDYWKELQHRLLDIQDTRLKLMDAHGIETMILSLAAPAVQAIPDRHKAIEIARRANDFLAEECAKRPDRFLAFAALPLQDPDAATEELQRTVNDLGFVGALVNGFSQEGDGQTPLYYDLPQYRPFWGEVEKLDVPFYLHPRNPLPQDSRIYDGHPWLLGPTWAFAQETAVHALRLMASGLFDEHPRLNIILGHMGEGLPYMMYRIDHRIAWVHEPPRYPAKRRFMDYFNENFHITTSGNFRTQTLIDAILEIGADRILFSTDWPFENIDHAADWFNATSIAEADRVKIGRTNARRLFKLDGD | 1.3 fold | 1.3 fold |
| 160 (protein, Dicamba decarboxylase variant) MAQGKVALEEHFAIPETLQDSAGFVPGDYWKELQHRLLDIQDTRLKLMDAHGIETMILSLAAPAVQAIPDRRKAIEIARRANDFLAEECAKRPDRFLAFAALPLQDPDAATEELQRCVNTLGFVGALVNGFSQEGDGQTPLYYDLPQYRPFWGEVEKLDVPFYLHPRNPLPQDSRIYDGHPWLLGPTWAFAQETAVHALRLMASGLFDEHPRLNIILGHMGEGLPYMMYRIDHRIAWVKLPPRYPAKRRFMDYFNENFHITTSGNFRTQTLIDAILEIGADRILFSTDWPFENIDHAADWFNATSIAEADRVKIGRTNARRLFKLDGD | 1.7 fold | 1.1 fold |
| 157 (protein, Dicamba decarboxylase variant) MAQGKVALEEHFAIPETLQDSAGFVPGDYWKELQHRLLDIQDTRLKLMDAHGIETMILSLAAPAVQAIPDRRKAIEIARRANDFLAEECAKRPDRFLAFAALPLQDPAAATEELQRCVNDLGFVGALVNGFSVEGDGQTPLYYDLPQYRPFWGEVEKLDVPFYLHPRNPLPQDSRIYDGHPWLLGPTWAFAQETAVHALRLMASGLFDEHPRLNIILGHMGEGLPYMMYRIDHRIAWVHEPPRYPAKRRFMDYFNENFHITTSGNFRTQTLIDAILEIGADRILFSTDWPFENIDHAADWFNATSIAEADRLKIGRTNARRLFKLDGD | 1.4 fold | 1.2 fold |
| 161 (protein, Dicamba decarboxylase variant) MAQGKVALEEHFAIPETLQDSAGFVPGDYWKELQHRLLDIQDTRLKLMDAHGIETMILSLAAPAVQAIPDRRKAIEIARRANDFLAEECAKRPDRFLAFAALPLQDPDAATEELQRCVNDLGFVGALVNGFSVEGDGQTPLYYDLPQYRPFWGEVEKLDVPFYLHPRNPLPQDSRIYDGHPWLLGPTWAFAQETAVHALRLMASGLFDEHPRLNIILGHMGEGLPYMMYRIDHRIAWVKLPPRYPAKRRFMDYFNENFHITTSGNFRTQTLIDAILEIGADRILFSTDWPFENIDHATAWFNATSIAEADRVKIGRTNARRLFKLDGD | 1.5 fold | 1.1 fold |
| 159 (protein, Dicamba decarboxylase variant) MAQGKVALEEHFAIPETLQDSAGFVPGDYWKELQHRLLDIQDTRLKLMDAHGIETMILSLAAPAVQAIPDRRKAIEIARRANDFLAEECAKRPDRFLAFAALPLQDPDAATEELQRCVNDLGFVGALVNGFSVEGDGQTPLYYDLPQYRPFWGEVEKLDVPFYLHPRNPLPQDSRIYDGHPWLLGPTWAFAQETAVHALRLMASGLFDEHPRLNIILGHLGEGLPYMMYRIDHRIAWVKLPPRYPAKRRFMDYFNENFHITTSGNFRTQTLIDAILEIGADRILFSTDWPFENIDHAADWFNATSIAEADRVKIGRTNARRLFKLDGA | 1.5 fold | 1.0 fold |
| 158 (protein, Dicamba decarboxylase variant) MAQGKVALEEHFAIPETLNDSAGFVPGDYWKELQHRLLDIQDTRLKLMDAHGIETMILSLAAPAVQAIPDRRKAIEIARRANDFLAEECAKRPDRFLAFAALPLQDPDAATEELQRCVNDLGFVGALVNGFSQEGDGQTPLYYDLPQYRPFWGEVEKLDVPFYLHPRNPLPQDSRIYDGHPWLLGPTWAFAQETAVHALRLMASGLFDEHPRLNIILGHMGEGLPYMMYRIDHRIAWVKLPPRYPAKRRFMDYFNENFHITTSGNFRTQTLIDAILEIGADRILFSTDWPFENIDHATAWFNATSIAEADRVKIGRTNARRLFKLDGA | 1.6 fold | 1.0 fold |
| 152 (protein, Dicamba decarboxylase variant) MAQGKVALEEHFAIPETLQDSAGFVPGDYWKELQHRLLDIQDTRLKLMDAHGIETMILSLAAPAVQAIPDRRKAIEIARRANDFLAEECAKRPDRFLAFAALPLQDPDAATEELQRCVNDLGFVGALVNGFSVEGDGQTPLYYDLPQYRPFWGEVEKLDVPFYLHPRNPLPQDSRIYDGHPWLLGPTWAFAQETAVHALRLMASGLFDEHPRLNIILGHMGEGLPYMMYRIDHRIAWVKLPPRYPAKRRFMDYFNENFHITTSGNFRTQTLIDAILEIGADRILFSTDWPFENIDHAADWFNATSIAEADRVKIGRTNARRLFKLDGA | 1.8 fold | 1.1 fold |
| 153 (protein, Dicamba decarboxylase variant) MAQGKVALEEHFAIPETLQDSAGFVPSEYLKELQHRLLDIQDTRLKLMDAHGIETMILSLAAPAVQAIPDRRKAIEIARRANDFLAEECAKRPDRFLAFAALPLQDVDAATEELQRCVNDLGFVGALVNGFSVEGDGQTPLYYDLPQYRPFWGEVEKLDVPFYLHPRNPLPQDSRIYDGHPWLLGPTWAFAQETAVHALRLMASGLFDEHPRLNIILGHLGEGLPYMMYRIDHRIAWVKLPPRYPAKRRFMDYFNENFHITTSGNFRTQTLIDAILEIGADRILFSTDWPFENIDHAADWFNATSIAEADRLKIGRTNARRLFKLDGD | 1.7 fold | 1.8 fold |
